In US20040005554A1:

Assays:
[1] = target: ARP-GFP fusion protein (human ARP, Leu form from pBSSKII ARP.4, fused to EGFP of pEGFP-N2) (human); assay: anti-GFP plate capture, detection with anti-FLAG M2 and anti-mouse IgG-AP; unconcentrated medium of cotransfection
[2] = target: ARP-GFP fusion protein (human ARP, Leu form from pBSSKII ARP.4, fused to EGFP of pEGFP-N2) (human); assay: anti-GFP plate capture, detection with anti-FLAG M2 and anti-mouse IgG-AP; concentrated medium of cotransfection

Sequence of FLAG-BRP fusion protein (N-terminal FLAG tag on predicted mature human BRP, secreted through the mouse preprotrypsin signal) (Q86YW7 other isoform, or with tags, fused parts or gaps limits assumed): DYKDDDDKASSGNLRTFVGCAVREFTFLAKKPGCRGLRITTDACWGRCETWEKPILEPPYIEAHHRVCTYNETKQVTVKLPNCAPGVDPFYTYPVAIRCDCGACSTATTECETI

- Abs 405 nm [1]: 0.972 Abs 405 nm
- Abs 405 nm [2]: 1.41 Abs 405 nm
Substance: FLAG-BRP fusion protein (N-terminal FLAG tag on predicted mature human BRP, secreted through the mouse preprotrypsin signal) (from UniProt Q86YW7 25-130)
